According to PMC7353701, “Molecular characterization and heterologous expression of two α-glucosidases from Metschnikowia spp, both producers of honey sugars” (Microbial Cell Factories, 2020):

Key:
[1] = substrate: OC[C@H]1O[C@@](CO)(O[C@H]2O[C@H](CO)[C@@H](O)[C@H](O)[C@H]2O)[C@@H](O)[C@@H]1O; assay: initial rates, Michaelis-Menten fit; assay type: biochemical, Metschnikowia gruessii; details: 0-225 mM sucrose, standard assay 50 mM sodium phosphate pH 7.0, 30 °C
[2] = substrate: OC[C@H]1O[C@@](CO)(O[C@H]2O[C@H](CO)[C@@H](O)[C@H](O)[C@H]2O)[C@@H](O)[C@@H]1O; assay: initial rates, Michaelis-Menten fit; assay type: biochemical, Metschnikowia reukaufii; details: 0-225 mM sucrose, standard assay 50 mM sodium phosphate pH 7.0, 30 °C

B1: Mg-αGlu (Metschnikowia gruessii) (protein)
chain: MTDAIWWKDASVYQIWPASYKDSNGDGFGDIPGVISTLDYIKNLGVDVIWLSPMYDSPQDDMGYDVADYENVYPKYGTLEDMDTLISEVHARGMKLILDLVINHTSTAHKWFEESKSDKENPKRDWYIWKPARYDEDGNRHPPNNWQSYFSGSAWEYDENTDEYYLHLFAKSQPDLNWENDETRQAIYDSALTFWFEKGVDGFRIDTAGMYSKVQTFEDAPIVFPDLEWQPCTDFHQSGPRIHEFHKEMFEKVTSKYDAMTVGEVGHSSREDALKYVSAQEKEMNMMFLFDLVEVGSNPSDRFRYDGFKLTDFKQAVSNMSSFSEGTDAWSTCFFENHDQPRCITRFGNDSPEYLFRSGKMLATLLTSLTGTLFIYQGQEFGMTNVPLEWNIDEYKDINTVNYYQLYVEKNGEENVGELIKNINLVARDNARTPVQWDGTENGGFSTGQPWMRVNDNYQQVNAASQVNDPESLYNFYKKALEVRKEHKDVLIYGSLEIIDFDDERVFSFYKKSGDKTAYVVLNFTKDPIDFKPAVESELELVLTNEREIRDDVLSPYESRLYIVKN
**Q.** How did the Km [1] turn out when B1 was run?
**A.** 54.1 ± 5.8 mM

**Q.** And the kcat [1]?
**A.** 270 ± 10.9 s⁻¹

**Q.** What about the kcat/Km [1] of the same protein?
**A.** 4900 ± 700 M⁻¹ s⁻¹

B2: Mr-αGlu (Metschnikowia reukaufii) (protein)
chain: MTDAIWWKDASVYQIWPASYKDSNGDGFGDIPGVISTLDYIKNLGVDVIWLSPMYDSPQDDMGYDVADYENVYPKYGTLEDMDTLISEVHARGMKLILDLVINHTSTAHKWFEESKSDKENPKRDWYIWKPARYDEDGNRHPPNNWQSYFSGSAWEYDENTDEYYLHLFAKSQPDLNWENDETRQAIYDSALTFWFEKGVDGFRIDTAGMYSKVQTFEDAPIVFPDLEWQPCADFHQSGPRIHEFHKEMFEKVTSKYDAMTVGEVGHSSREDALKYVSAQEKEMNMMFLFDLVEVGSNPKDRFIYDGFKLTDFKQAVANMSSFSEGTDAWSTCFFENHDQPRCITRFGNDSPEYLFRSGKMLATLLTSLTGTLFIYQGQEFGMTNVPLEWNIDEYKDINTVNYYQLYVEKNGEENVGELIKNINLVARDNARTPVQWDGTENGGFSTGQPWMRVNDNYQQVNAASQVNDPESLYNFYKKALEVRKEHKDVLIYGSLEIIDFDDERVFSFYKKSGDKTAYVVLNFTKDPIDFKPAVESELELVLTNEREIRDDVLSPYESRLYIVKN
**Q.** B2 was tested. Which Km [2] did it give?
**A.** 64.9 ± 4.6 mM

**Q.** What about the kcat [2] of the same protein?
**A.** 477 ± 13.7 s⁻¹

**Q.** And the kcat/Km [2]?
**A.** 7400 ± 700 M⁻¹ s⁻¹
